Here are results for one molecule from patent US20230390371A1, “ANTI-TUMOR IMMUNITY INDUCES THE PRESENTATION OF ABERRANT PEPTIDES” (STICHTING HET NEDERLANDS KANKER INSTITUUT-ANTONI VAN …, priority 2020, published 2023).

The subject of assay [1] is MD55A3 cells expressing the out-of-frame tGFP+1 reporter gene. The experiment in a line: 2D-LC MS/MS full proteome, out-of-frame tGFP+1 reporter. The class given is cell-based, human. The note with it: IFNγ-treated vs control MD55A3 cells, +1 out-of-frame tGFP. Here is the method: For deeper proteome coverage in search of IFNγ-induced frameshifts, IFNγ- or mock treated melanoma cells were lysed and digested as described above, after which dried digests were subjected to basic reversed-phase (HpH-RP) high-performance liquid chromatography for offline peptide fractionation. 250 μg peptides were reconstituted in 95% 10 mM ammonium hydroxide (NH4OH, solvent A)/5% (90% acetonitrile (ACN)/10 mM NH4OH, solvent B) and loaded onto a Phenomenex Kinetex EVO C18 analytical column (150 mm×2.1 mm, particle size 5 μm, 100 Å pores) coupled to an Agilent 1260 HPLC system equipped with a fraction collector. […] All fractions were analyzed by nanoLC-MS/MS on an Orbitrap Fusion Tribrid mass spectrometer equipped with an Easy-nLC1000 system (Thermo Scientific) as described previously^72. […]
Further, the MS data was analyzed by MaxQuant (version 1.6.0.16)74. […] The in-frame protein expression data was further normalized and analyzed using DEP^76, For the frame-shift proteome analysis, the MS data was analyzed by MaxQuant (version 1.6.0.16)^74 with LFQ normalization, and then was scanned against the trans-frame polypeptide database together with the SWISSPROT proteins with Evidence level of 1. […] Only the peptides reproducibly detected across replicates were retained for further analysis, and the list included reverse peptide hits (n=41) (FIG. 4c). […]

Assay [2] deals with A375 cells expressing H2-Kb. The assay is described as follows: H2-Kb-bound SIINFEKL presentation from V5-ATF4(1-63)-tGFP-SIINFEKL reporters. In kind it is cell-based, human. The note with it: IFNγ treatment. The source says:
FIG. 4: Aberrant frameshifted peptides are detected in full proteomes, are presented on HLA class I molecules, and induce peptide-specific T cell response. • (a) Gene set enrichment analysis (GSEA) based depiction of the proteomics data showing the induction of the IFN response and HLA genes following IFN treatment of MD55A3 cells. (b) A volcano plot showing differentially identified proteins as detected by 2D LC-MS/MS on lysates of MD55A3 cells expressing the V5-ATF4(1-63)-tGFP +1 out-of-frame construct. The red arrowhead indicates a peptide identified in the full proteome that corresponds to tGFP that could only have arisen from a frameshifting event. (c) Same analysis as panel b, but for the tryptophan-associated aberrant peptides identified to be reproducibly present in either IFNγ-treated or control conditions. […] (d) Bar graph depicting the median fluorescence intensity (MFI) of H2-Kb-bound SIINFEKL peptides in A375 cells expressing H2-Kb in combination with in-frame (Frame) or +1 out-of-frame (+1) V5-ATF4(1-63)-tGFP-SIINFEKL reporters. […] The panel presents 12 frameshifted peptides detected in the immuno-peptidomics mass spectrometry data of IFNγ and tryptophan deprived (mTRP) samples, which were not detected in the untreated controls. A subset of these were also detected in the fresh tumor metastases (mets) samples of the same patient (MD55). […]

Some results are limits rather than exact numbers.

B1: IFNγ: interferon gamma (PeproTech), used at 250 U/mL (protein, UniProt P01579 24-161, looked up)
Interferon gamma: QDPYVKEAENLKKYFNAGHSDVADNGTLFLGILKNWKEESDRKIMQSQIVSFYFKLFKNFKDDQSIQKSVETIKEDMNVKFFNSNKKKRDDFEKLTNYSVTDLNVQRKAIHELIQVMAELSPAAKTGKRKRSQMLFRG
Turning to B1, the “induction of tGFP reporter peptide expression” value in assay [1] is over 30 fold. Also, the “presentation of +1 out-of-frame SIINFEKL peptide” value in assay [2] (+1 out-of-frame reporter, IDO1-dependent) was “strongly stimulated”. For the same molecule, in assay [2] (in-frame reporter, IDO1-independent), the “presentation of in-frame SIINFEKL peptide” value is reported as “mildly induced”.
